Measured values taken from US6300131, “Telomerase-associated proteins” (Johns Hopkins University, dated 2001).

Target: ribosomal associated protein L22 (human, UniProt P35268)
Assay: co-immunoprecipitation from 293 cell lysate, Western blot
Procedure: Multi-tissue northern blots (Clontech) were hybridized with a 0.7 kb BamHI-EcoRI hStau cDNA probe according to the manufacturer's procedures. In particular, blots were hybridized at 68° C. in ExpressHyb solution (Clontech) for 1 hour with shaking. Blots were washed several times in 2×SSC, 0.05% SDS at room temperature, with a final wash in 0.1×SSC and 0.1% SDS at 60° C. for about 40 minutes. The blots then were re-probed with an actin probe without stripping the hStau signal. Signal intensity was quantified on a BAS 1500 PhosphorImager system (Fuji Medical System, Inc, Stamford, Conn.).

- binding result: no binding
B1: human staufen (hStau) polypeptide (other)
chain: MKLGKKPMYKPVDPYSRMRSTYNYNMRGGAYPPRYFYPFPVPPLLYQVELSVGGQQFNGKGKTRQAAKHDAAAKALRILQNEPLPERLEVNGRESEEENLNKSEISQVFEIALKRNLPVNFEVARESGPPHMKNFVTKVSVGEFVGEGEGKSKKISKKNAAIAVLEELKKLPPLPAVERVKPRIKKKTKPIVKPQTSPEYGQGINPISRLAQIQQAKKEKEPEYTLLTERGLPRRREFVMQVKVGNHTAEGTGTNKKVAKRNAAENMLEILGFKVPQAQPTKPALKSEEKTPIKKPGDGRKVTFFEPGSGDENGTSNKEDEFRMPYLSHQQLPAGILPMVPEVAQAVGVSQGHHTKDFTRAAPNPAKATVTAMIARELLYGGTSPTAETILKNNISSGHVPHGPLTRPSEQLDYLSRVQGFQVEYKDFPKNNKNEFVSLINCSSQPPLISHGIGKDVESCHDMAALNILKLLSELDQQSTEMPRTGNGPMSVCGRC
